Laboratory results from article PMC6100724, “Proteome‐wide analysis of phospho‐regulated PDZ domain interactions” (Molecular Systems Biology, 2018).
Square brackets hold non-standard residues; d marks the D form. Ends that are not written are not given here. * marks the point of attachment. FITC = O=C1OC2(c3ccc(O)cc3Oc3cc(O)ccc32)c2ccc(NC(=S)*)cc21; pS = N[C@@H](COP(=O)(O)O)C(=O)O

B1: Scribble PDZ1 (His-tagged, aa 719-829) (domain or fragment)
chain: not shown
notes: human Scribble, PDZ1, aa 719-829, in pETM-11; Used for MST and ITC; removal of the His tag is told only for the NMR samples; also called Scribble PDZ1 wild type; source: E. coli BL21 Gold (DE3), purified (Ni2+ Sepharose), dialysed

Key:
Conditions in all cases: both partners purified
[1] = molecular target: T1, FITC-HTNETpSL (MCC peptide, phosphorylated at p-1) (human); experiment: MST; FITC-labeled peptide fixed at 25-50 nM, protein (Scribble PDZ1 or DLG1 PDZ2) in a 1:1 dilution series; 50 mM Tris-HCl pH 7.4, 0.1% Tween-20; thermophoresis and T-Jump signal; n = 3
T1 construct: C-terminal peptide of human MCC; also called pMCC; source: synthetic peptide, bought: GeneCust
T1 peptide: {FITC}-HTNET[pS]L

[2] = molecular target: T2, FITC-KRpSFIESNV (TANC1 peptide, phosphorylated at p-6) (human); experiment: as above
T2 construct: C-terminal peptide of human TANC1; also called TANC1 phosphopeptide; source: synthetic peptide, bought: GeneCust
T2 peptide: {FITC}-KR[pS]FIESNV

[3] = molecular target: T3, FITC-RLTpSTRL (RPS6KA2 peptide, phosphorylated at p-3) (human); experiment: as above
T3 construct: C-terminal peptide of human RPS6KA2; source: synthetic peptide, bought: GeneCust
T3 peptide: {FITC}-RLT[pS]TRL

[4] = molecular target: T4, FITC-KREFIESNV (TANC1 peptide, phosphomimetic at p-6) (human, Ser to Glu at p-6 (stands in the printed letters)); experiment: as above
T4 construct: also called phosphomimetic TANC1; source: synthetic peptide, bought: GeneCust
T4 peptide: {FITC}-KREFIESNV

[5] = molecular target: T5, FITC-RLTETRL (RPS6KA2 peptide, phosphomimetic at p-3) (human, S730E (stands in the printed letters)); experiment: as above
T5 construct: also called phosphomimetic RPS6KA2; source: synthetic peptide, bought: GeneCust
T5 peptide: {FITC}-RLTETRL

[6] = molecular target: T3, FITC-RLTpSTRL (RPS6KA2 peptide, …); experiment: MST; FITC-labeled peptide fixed at 25-50 nM, untagged SHANK1 PDZ in a dilution series; PBS, 10 mM MgCl2, 0.05% Tween-20; n = 3
[7] = molecular target: T6, Scribble PDZ1 R762A/A743R (human, UniProt Q14160 719-829, R762A | A743R); experiment: ITC; iTC200, 25°C, 20 mM HEPES pH 7.4; protein 50-100 μM in the cell, peptide 0.64-3 mM in the syringe; single-site fit, stoichiometry fixed to 0.8-1.1; n = 3
T6 construct: human Scribble, PDZ1, aa 719-829, A743R introduced in the background of R762A; also called R762A/A743R mutant; source: E. coli BL21 Gold (DE3), purified (Ni2+ Sepharose), dialysed

Scribble PDZ1 R762A = molecular target: T7, Scribble PDZ1 R762A (human, UniProt Q14160 719-829, R762A); experiment: as above
T7 construct: human Scribble, PDZ1, aa 719-829, in pETM-11, point mutant; Used for ITC; also called mutational background; source: E. coli BL21 Gold (DE3), purified (Ni2+ Sepharose), dialysed

[8] = molecular target: B1; experiment: as above

T7 sequence (Q14160 719-829 R762A): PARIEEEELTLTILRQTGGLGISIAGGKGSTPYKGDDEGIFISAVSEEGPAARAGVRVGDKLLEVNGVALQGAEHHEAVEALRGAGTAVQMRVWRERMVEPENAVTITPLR
T6 sequence (Q14160 719-829 A743R/R762A): as the sequence (Q14160 719-829 R762A) above, with A25R counted along it

Question: Which results are given for B1?
Answer: fold higher affinity than for the unphosphorylated peptide [1]: 3 fold; fold lower affinity than for the unphosphorylated peptide [2]: 2 fold; fold higher affinity than for the unphosphorylated peptide [3]: 5 fold

B2: DLG1 PDZ2 (His-tagged, aa 311-407) (domain or fragment, human, UniProt Q12959 311-407, looked up)
chain: KPVSEKIMEIKLIKGPKGLGFSIAGGVGNQHIPGDNSIYVTKIIEGGAAHKDGKLQIGDKLLAVNNVCLEEVTHEEAVTALKNTSDFVYLKVAKPTS
notes: human DLG1, PDZ2, aa 311-407, in a modified pRSET vector; also called DLG PDZ2; source: E. coli BL21 Gold (DE3), purified (Ni2+ Sepharose), dialysed
Question: For B2, which “fold lower affinity than for the unphosphorylated peptide” value (“fold lower affinity than” below) [4] is on record?
Answer: 2.4 fold

Question: What about the “fold lower affinity than” value [2] of the same binder?
Answer: 2.9 fold

Question: And the “fold higher affinity than for the unphosphorylated peptide” value [5]?
Answer: 1.3 fold

B3: SHANK1 PDZ (aa 652-761, His-GST tag removed) (domain or fragment, human, UniProt Q9Y566 652-761, looked up)
chain: GPGSDYIIKEKTVLLQKKDSEGFGFVLRGAKAQTPIEEFTPTPAFPALQYLESVDEGGVAWRAGLRMGDFLIEVNGQNVVKVGHRQVVNMIRQGGNTLMVKVVMVTRHPD
notes: human Shank1, PDZ, aa 652-761, in pETM-33; also called untagged SHANK1 PDZ; source: E. coli BL21 Gold (DE3), purified (Ni2+ Sepharose), tag removed with HRV3C protease
Question: With B3 as the binder, how does the “fold lower affinity than” value [6] read?
Answer: 3.6 fold

B4: MKRLTpSTRL (RPS6KA2 peptide, phosphorylated at p-3, unlabelled) (peptide)
peptide: MKRLT[pS]TRL
notes: C-terminal peptide of human RPS6KA2; also called phospho-RPS6KA2; pRPS6KA2; source: synthetic peptide, bought: GeneCust
Question: Does B4 bind [7]?
Answer: binds

Question: What about the “fold weaker affinity than the wild type” value (Scribble PDZ1 R762A) of the same binder?
Answer: 6 fold

Question: And the “fold higher affinity than for the unphosphorylated peptide” value [8]?
Answer: 5 fold
